Measurements from paper PMC8191779, “Hinge like domain motion facilitates human RBMS1 protein binding to proto-oncogene c-myc promoter”.

How the values were obtained:
[1] = target: T1, RBMS1 (58-224) (Homo sapiens) (UniProt P29558); test: ITC; settings: ITC: 20 mM sodium phosphate pH 7.1, 50 mM NaCl, 303 K, 0.1 mM protein in cell, 1-1.5 mM DNA in syringe; NMR: 20 mM sodium phosphate pH 7.1, 100 mM NaCl, 5% D2O
T1 sequence: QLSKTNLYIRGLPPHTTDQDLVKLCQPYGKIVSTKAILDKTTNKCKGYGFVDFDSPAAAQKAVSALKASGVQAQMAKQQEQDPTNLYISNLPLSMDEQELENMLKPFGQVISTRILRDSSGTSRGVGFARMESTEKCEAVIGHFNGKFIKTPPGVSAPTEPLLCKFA

RBMS1 (58-224) [2] = target: T2, RBMS1 (58-224) (Homo sapiens, UniProt P29558 62-223); test: ITC; 20 mM sodium phosphate pH 7.1, 50 mM NaCl, 303 K (30 C); 0.1 mM protein in cell, 1-1.5 mM DNA in syringe; settings: protein: recombinant; tags: N-term GAMG left after TEV cleavage of 6xHis
T2 sequence: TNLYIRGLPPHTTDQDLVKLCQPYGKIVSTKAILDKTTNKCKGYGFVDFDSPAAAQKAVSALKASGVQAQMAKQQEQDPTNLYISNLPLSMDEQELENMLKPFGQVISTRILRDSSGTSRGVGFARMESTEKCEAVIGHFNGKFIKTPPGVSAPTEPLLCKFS

RBMS1 (58-224) Q138E = target: T3, RBMS1 (58-224) Q138E (Homo sapiens, UniProt P29558 62-223, Q138E); test: as above; settings: protein: recombinant; tags: N-term GAMG left after TEV cleavage of 6xHis
T3 sequence: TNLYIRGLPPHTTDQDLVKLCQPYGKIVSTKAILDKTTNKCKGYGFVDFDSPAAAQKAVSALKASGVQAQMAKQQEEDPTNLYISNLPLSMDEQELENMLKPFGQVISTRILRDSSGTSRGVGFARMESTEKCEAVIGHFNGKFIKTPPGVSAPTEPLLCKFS

RBMS1 (58-224) F107L = target: T4, RBMS1 (58-224) F107L (Homo sapiens, UniProt P29558 62-223, F107L); test: as above; settings: protein: recombinant; tags: N-term GAMG left after TEV cleavage of 6xHis
T4 sequence: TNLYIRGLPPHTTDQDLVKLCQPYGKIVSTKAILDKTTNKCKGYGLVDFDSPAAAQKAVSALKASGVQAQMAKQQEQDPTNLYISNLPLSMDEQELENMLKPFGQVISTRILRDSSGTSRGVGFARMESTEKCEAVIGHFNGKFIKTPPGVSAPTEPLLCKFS

RBMS1 (58-224) F185V = target: T5, RBMS1 (58-224) F185V (Homo sapiens, UniProt P29558 62-223, F185V); test: as above; settings: protein: recombinant; tags: N-term GAMG left after TEV cleavage of 6xHis
T5 sequence: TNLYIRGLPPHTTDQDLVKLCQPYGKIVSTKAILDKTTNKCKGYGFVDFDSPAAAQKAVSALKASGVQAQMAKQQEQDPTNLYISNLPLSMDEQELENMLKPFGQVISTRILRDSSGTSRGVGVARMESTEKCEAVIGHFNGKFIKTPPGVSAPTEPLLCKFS

RBMS1 (58-224) Y105S = target: T6, RBMS1 (58-224) Y105S (Homo sapiens, UniProt P29558 62-223, Y105S); test: as above; settings: protein: recombinant; tags: N-term GAMG left after TEV cleavage of 6xHis
T6 sequence: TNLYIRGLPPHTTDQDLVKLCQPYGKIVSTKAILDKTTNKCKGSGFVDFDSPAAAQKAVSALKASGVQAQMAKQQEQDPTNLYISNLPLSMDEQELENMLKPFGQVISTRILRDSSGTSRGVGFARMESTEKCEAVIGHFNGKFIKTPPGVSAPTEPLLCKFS

RBMS1 RRM2 = target: T7, RBMS1 RRM2 (Homo sapiens, UniProt P29558 138-224); test: ITC; ITC: 20 mM sodium phosphate pH 7.1, 50 mM NaCl, 303 K, 0.1 mM protein in cell, 1-1.5 mM DNA in syringe; NMR: 20 mM sodium phosphate pH 7.1, 100 mM NaCl, 5% D2O; settings: protein: recombinant; tags: 6xHis removed by TEV; single strand
T7 sequence: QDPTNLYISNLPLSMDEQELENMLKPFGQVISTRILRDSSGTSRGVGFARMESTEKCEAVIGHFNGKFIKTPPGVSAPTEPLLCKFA

RBMS1 RRM1 [3] = target: T8, RBMS1 RRM1 (Homo sapiens, UniProt P29558 58-137); test: as above; settings: protein: recombinant; tags: 6xHis removed by TEV; single strand
T8 sequence: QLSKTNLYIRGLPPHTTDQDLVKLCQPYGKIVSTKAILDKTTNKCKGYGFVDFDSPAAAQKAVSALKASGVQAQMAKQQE

RBMS1 (58-224) [4] = target: T9, RBMS1 (58-224) (Homo sapiens, UniProt P29558 58-224); test: as above; settings: protein: recombinant; tags: N-term GAMG left after TEV cleavage of 6xHis; single strand
T9 sequence: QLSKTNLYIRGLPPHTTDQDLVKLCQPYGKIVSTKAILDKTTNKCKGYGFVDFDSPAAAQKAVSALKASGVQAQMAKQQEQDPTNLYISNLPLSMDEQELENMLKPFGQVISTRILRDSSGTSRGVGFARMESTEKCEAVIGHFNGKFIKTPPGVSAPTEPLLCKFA

[5] = target: T10, RBMS1 linker mutant Q135E/Q138E (Homo sapiens, UniProt P29558 58-224, Q135E); test: as above; settings: protein: recombinant; tags: 6xHis removed by TEV; single strand
T10 sequence: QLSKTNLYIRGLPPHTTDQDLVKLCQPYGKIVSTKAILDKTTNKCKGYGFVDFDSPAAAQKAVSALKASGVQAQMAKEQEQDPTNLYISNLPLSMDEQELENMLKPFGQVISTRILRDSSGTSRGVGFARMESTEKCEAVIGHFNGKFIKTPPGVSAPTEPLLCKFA

RBMS1 RRM1 [6] = target: T8, RBMS1 RRM1; test: as above; settings: protein: recombinant; tags: 6xHis removed by TEV; single strand; remark: listed apart in the source

**Q.** c-myc 21 bp promoter sequence was tested. Which Kd [1] did it give?
**A.** The Kd was 2600 nM.

B1: TCGTATT (ssDNA)
DNA: TCGTATT
**Q.** How did the Kd (RBMS1 (58-224) [2]) turn out when B1 was run?
**A.** Its Kd is 7.7 µM.

B2: TATAATT (ssDNA)
DNA: TATAATT
**Q.** B2 was tested. Which Kd (RBMS1 (58-224) [2]) did it give?
**A.** The Kd was 37 µM.

B3: TGGTAAT (ssDNA)
DNA: TGGTAAT
**Q.** How did the Kd (RBMS1 (58-224) [2]) turn out when B3 was run?
**A.** Its Kd is 9.6 µM.

B4: TGGTCAT (ssDNA)
DNA: TGGTCAT
**Q.** How did the Kd (RBMS1 (58-224) [2]) turn out when B4 was run?
**A.** The Kd was 17.5 µM.

B5: TTTTT (ssDNA)
DNA: TTTTT
**Q.** How did the Kd (RBMS1 (58-224) [2]) turn out when B5 was run?
**A.** The Kd was 79.4 µM.

B6: TGGTACT (ssDNA)
DNA: TGGTACT
**Q.** B6 was tested. Which Kd (RBMS1 (58-224) [2]) did it give?
**A.** The Kd was 15.9 µM.

B7: CTTTA (ssDNA)
DNA: CTTTA
**Q.** How did the Kd (RBMS1 (58-224) [2]) turn out when B7 was run?
**A.** The Kd was 55.5 µM.

B8: TCCCATT (ssDNA)
DNA: TCCCATT
**Q.** With B8 as the molecule, how does the Kd (RBMS1 (58-224) [2]) read?
**A.** Its Kd is 8.2 µM.

B9: TGGTGTT (ssDNA)
DNA: TGGTGTT
**Q.** Which Kd (RBMS1 (58-224) [2]) does the source give for B9 here?
**A.** The Kd was 16.1 µM.

B10: TCATATT (ssDNA)
DNA: TCATATT
**Q.** With B10 as the molecule, how does the Kd (RBMS1 (58-224) [2]) read?
**A.** The Kd was 11.9 µM.

B11: TCTTATT (ssDNA)
DNA: TCTTATT
**Q.** B11 was tested. Which Kd (RBMS1 (58-224) Q138E) did it give?
**A.** The Kd was 13.9 µM.

**Q.** And the Kd (RBMS1 (58-224) F107L)?
**A.** Its Kd is 142 µM.

**Q.** And the Kd (RBMS1 (58-224) F185V)?
**A.** Its Kd is 6.02 µM.

**Q.** Does B11 bind (RBMS1 (58-224) Y105S)?
**A.** Result: no binding

**Q.** And the Kd (RBMS1 (58-224) [2])?
**A.** Its Kd is 3.84 µM.

B12: TCTTATG (ssDNA)
DNA: TCTTATG
**Q.** How did the Kd (RBMS1 (58-224) [2]) turn out when B12 was run?
**A.** The Kd was 19.3 µM.

B13: TGCTATT (ssDNA)
DNA: TGCTATT
**Q.** For B13, which Kd (RBMS1 (58-224) [2]) is on record?
**A.** The Kd was 8.69 µM.

B14: TGGTTTT (ssDNA)
DNA: TGGTTTT
**Q.** Which results are given for B14?
**A.** Kd (RBMS1 (58-224) Q138E): 18.1 µM; Kd (RBMS1 (58-224) F107L): 83.3 µM; Kd (RBMS1 (58-224) F185V): 22 µM; Kd (RBMS1 (58-224) Y105S): 418 µM; Kd (RBMS1 (58-224) [2]): 4.04 µM; binding result (RBMS1 RRM2): no binding

B15: TGGTATT (ssDNA)
DNA: TGGTATT
**Q.** Which results are given for B15?
**A.** Kd (RBMS1 (58-224) Q138E): 17.6 µM; Kd (RBMS1 (58-224) F107L): 182 µM; Kd (RBMS1 (58-224) F185V): 23.2 µM; Kd (RBMS1 (58-224) Y105S): 151 µM; Kd (RBMS1 (58-224) [2]): 6.7 µM; binding result (RBMS1 RRM2): no binding; binding signal (RBMS1 RRM1 [3]): 10 fold lower affinity than RBMS1 58-224

B16: TGGGATT (ssDNA)
DNA: TGGGATT
**Q.** For B16, which Kd (RBMS1 (58-224) [2]) is on record?
**A.** Its Kd is 36.4 µM.

B17: TCGGATG (ssDNA)
DNA: TCGGATG
**Q.** B17 was tested. Which Kd (RBMS1 (58-224) [2]) did it give?
**A.** Its Kd is 35.5 µM.

B18: TGGTATC (ssDNA)
DNA: TGGTATC
**Q.** B18 was tested. Which Kd (RBMS1 (58-224) [2]) did it give?
**A.** The Kd was 6.2 µM.

B19: GTAT (ssDNA)
DNA: GTAT
**Q.** Does B19 bind (RBMS1 (58-224) [2])?
**A.** Result: no binding

B20: GTTAT (ssDNA)
DNA: GTTAT
**Q.** Which Kd (RBMS1 (58-224) [2]) does the source give for B20 here?
**A.** The Kd was 81.3 µM.

B21: ATAT (ssDNA)
DNA: ATAT
**Q.** Does B21 bind (RBMS1 (58-224) [2])?
**A.** Result: no binding

B22: TGTTATT (C2G) (ssDNA)
DNA: TGTTATT
**Q.** How did the Kd (RBMS1 (58-224) [4]) turn out when B22 was run?
**A.** The Kd was 15.2 µM.

B23: GGTAAT (ssDNA)
DNA: GGTAAT
**Q.** How did the Kd (RBMS1 (58-224) [2]) turn out when B23 was run?
**A.** The Kd was 14.9 µM.

B24: TGGAATT (ssDNA)
DNA: TGGAATT
**Q.** How did the Kd (RBMS1 (58-224) [2]) turn out when B24 was run?
**A.** Its Kd is 21 µM.

B25: TTAT (ssDNA)
DNA: TTAT
**Q.** Does B25 bind (RBMS1 (58-224) [2])?
**A.** Result: no binding

B26: c-myc consensus TCTTATT (ssDNA)
DNA: TCTTATT
**Q.** Which results are given for B26?
**A.** binding signal [5]: 10 fold lower binding than wild type; Kd (RBMS1 (58-224) [4]): 3.84 µM; Kd (RBMS1 RRM1 [6]): 55.2 µM

B27: TGTTATT (ssDNA)
DNA: TGTTATT
**Q.** B27 was tested. Which Kd (RBMS1 (58-224) [2]) did it give?
**A.** The Kd was 15.2 µM.
